Experimental data as given in patent publication US20220332804A1 (CSL INNOVATION, published 2022).
Substitutions are numbered along the chain they refer to.

Tests used:
Experiment in all cases: SPR, KD relative to WT C2;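 also: biacore SPR at 37 °C, anti-C2 mAbs captured via immobilised goat anti-human IgG, C2 alanine or serine surface mutants as analytes, 1:1 model fitted, double-referenced sensograms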
human C2 A709S = biological target: T1, human C2 A709S (human, UniProt P06681 21-752)
T1 sequence: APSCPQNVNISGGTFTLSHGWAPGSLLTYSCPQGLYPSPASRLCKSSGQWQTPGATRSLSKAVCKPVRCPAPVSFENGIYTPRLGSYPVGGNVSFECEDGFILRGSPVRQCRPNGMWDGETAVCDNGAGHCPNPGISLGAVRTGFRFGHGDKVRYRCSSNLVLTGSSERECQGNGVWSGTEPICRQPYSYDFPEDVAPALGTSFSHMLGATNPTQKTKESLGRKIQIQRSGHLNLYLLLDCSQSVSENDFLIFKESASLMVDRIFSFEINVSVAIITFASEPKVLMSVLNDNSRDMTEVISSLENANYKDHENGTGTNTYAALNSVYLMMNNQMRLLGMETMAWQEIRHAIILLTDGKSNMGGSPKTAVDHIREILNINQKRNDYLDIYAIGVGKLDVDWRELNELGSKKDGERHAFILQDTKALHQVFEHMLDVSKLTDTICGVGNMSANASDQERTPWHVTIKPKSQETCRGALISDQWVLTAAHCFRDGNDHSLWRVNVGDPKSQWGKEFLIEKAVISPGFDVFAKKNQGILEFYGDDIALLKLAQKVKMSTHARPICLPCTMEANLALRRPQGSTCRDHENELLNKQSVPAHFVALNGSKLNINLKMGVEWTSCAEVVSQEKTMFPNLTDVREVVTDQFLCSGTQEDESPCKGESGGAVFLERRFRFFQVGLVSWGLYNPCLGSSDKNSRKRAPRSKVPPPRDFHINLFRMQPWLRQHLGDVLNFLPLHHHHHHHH

human C2 D417A = biological target: T2, human C2 D417A (human, UniProt P06681 21-752)
T2 sequence: T1 sequence with D397A, S689A

human C2 N467A = biological target: T3, human C2 N467A (human, UniProt P06681 21-752)
T3 sequence: T1 sequence with N447A, S689A

human C2 K550A = biological target: T4, human C2 K550A (human, UniProt P06681 21-752)
T4 sequence: T1 sequence with K530A, S689A

B1: RF16-226 (antibody, human IgG4 S228P, lambda)
heavy: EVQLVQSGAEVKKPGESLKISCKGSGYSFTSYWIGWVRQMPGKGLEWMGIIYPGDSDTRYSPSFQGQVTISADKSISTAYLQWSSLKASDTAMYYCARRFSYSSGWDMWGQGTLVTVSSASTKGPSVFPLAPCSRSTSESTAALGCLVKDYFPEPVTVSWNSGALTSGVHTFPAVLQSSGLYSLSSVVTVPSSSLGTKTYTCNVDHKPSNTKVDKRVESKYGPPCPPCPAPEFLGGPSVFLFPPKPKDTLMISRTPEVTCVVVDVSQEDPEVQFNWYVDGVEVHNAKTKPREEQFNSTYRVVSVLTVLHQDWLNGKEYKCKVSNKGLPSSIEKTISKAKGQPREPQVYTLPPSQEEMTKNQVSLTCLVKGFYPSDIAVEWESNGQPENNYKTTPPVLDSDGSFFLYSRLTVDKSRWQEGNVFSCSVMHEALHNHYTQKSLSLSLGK
light: SYELTQPPSVSVSPGQTARITCSGDALTSKYVAWYQQKSGLAPLLVIYEDTRRPSGIPAKFSGSSSGSVATLTISGAHGDDEADYYCYSTDASGHQRVFGGGTKLTVLSQPKAAPSVTLFPPSSEELQANKATLVCLISDFYPGAVTVAWKADGSPVKAGVETTKPSKQSNNKYAASSYLSLTPEQWKSHRSYSCQVTHEGSTVEKTVAPTECS
notes: pH-dependent anti-C2 antibody from a phage display library; also called WT
With B1 the Fold diff (human C2 A709S) was 13 fold, the Fold diff (human C2 D417A) was 2 fold and the Fold diff (human C2 N467A) was 2 fold. The Fold diff (human C2 K550A) was 1 fold.
